Test results: IntAct's records for PubMed 16628219

B1: Gag polyprotein (Moloney murine leukemia virus (isolate Shinnick) (MoMLV)), P03332 (parent)
chain: MGQTVTTPLSLTLGHWKDVERIAHNQSVDVKKRRWVTFCSAEWPTFNVGWPRDGTFNRDLITQVKIKVFSPGPHGHPDQVPYIVTWEALAFDPPPWVKPFVHPKPPPPLPPSAPSLPLEPPRSTPPRSSLYPALTPSLGAKPKPQVLSDSGGPLIDLLTEDPPPYRDPRPPPSDRDGNGGEATPAGEAPDPSPMASRLRGRREPPVADSTTSQAFPLRAGGNGQLQYWPFSSSDLYNWKNNNPSFSEDPGKLTALIESVLITHQPTWDDCQQLLGTLLTGEEKQRVLLEARKAVRGDDGRPTQLPNEVDAAFPLERPDWDYTTQAGRNHLVHYRQLLLAGLQNAGRSPTNLAKVKGITQGPNESPSAFLERLKEAYRRYTPYDPEDPGQETNVSMSFIWQSAPDIGRKLERLEDLKNKTLGDLVREAEKIFNKRETPEEREERIRRETEEKEERRRTEDEQKEKERDRRRHREMSKLLATVVSGQKQDRQGGERRRSQLDRDQCAYCKEKGHWAKDCPKKPRGPRGPRPQTSLLTLDD
B2: Gag polyprotein (Moloney murine leukemia virus (isolate Shinnick) (MoMLV)), P03332 (parent)
chain: B1 chain
partner: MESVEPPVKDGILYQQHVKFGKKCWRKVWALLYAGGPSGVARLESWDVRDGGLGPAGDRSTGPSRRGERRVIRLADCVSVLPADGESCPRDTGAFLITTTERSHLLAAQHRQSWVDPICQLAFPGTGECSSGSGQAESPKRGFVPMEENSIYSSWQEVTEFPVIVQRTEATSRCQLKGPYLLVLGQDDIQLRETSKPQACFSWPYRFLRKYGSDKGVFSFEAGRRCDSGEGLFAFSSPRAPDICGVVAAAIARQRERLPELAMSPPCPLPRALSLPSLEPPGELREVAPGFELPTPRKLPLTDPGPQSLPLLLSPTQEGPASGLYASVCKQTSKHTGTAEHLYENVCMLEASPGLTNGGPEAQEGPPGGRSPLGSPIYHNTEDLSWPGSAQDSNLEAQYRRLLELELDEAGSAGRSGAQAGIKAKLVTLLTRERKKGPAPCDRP
B3: Ras GTPase-activating-like protein IQGAP1 (Mus musculus), Q9JKF1 (parent)
chain: MSAAEEVDGLGVVRPHYGSVLDNERLTAEEMDERRRQNVAYEYLCHLEEAKRWMEACLGEDLPPTTELEEGLRNGVYLAKLGNFFSPKVVSLKKIYDREQTRYKATGLHFRHTDNVIQWLNAMDEIGLPKIFYPETTDIYDRKNMPRCIYCIHALSLYLFKLGLAPQIQDLYGKVDFTEEEINNMKIELEKYGIQMPAFSKIGGILANELSVDEAALHAAVIAINEAIDRRVAADTFTALKNPNAMLVNLEEGLAPTYQDVLYQAKQDKMTNAKNRTENSDRERDVYEELLTQAEIQGNVNKVNTSSALANISLALEQGCAVTLLKALQSLALGLRGLQTQNSDWYMKQLQSDLQQKRQSGQTDPLQKEEVQAGVDAANSAAQQYQRRLAAVAAINAAIQKGIAEKTVLELMNPEAQLPQVYPFAADLYQKELATLQQQSPEHSLTHPELTVAVEMLSSVALINRALESGDMTTVWKQLSSSVTGLTNIEEENCQRYLDELMKLKAQAHAENNAFITWNDIQACVDHVNLVVHEEHERILAIGLINEALDEGDAQKTLQALQIPAAKLEGVLAEVAQHYQDTLIRAKREKAQETQDESAVLWLDEIQGGIWQSNKDTQEAQRFALGISAINEAVDSGDVGRTLSALRSPDVGLYGVIPECGETYQSDLAEAKKKRLAAGDNNSKWVKHWVKGGYHYYHNLETQAGGWAEPPDFVQNSVQLSREEIQSSISGVTAAYNREQLWLANEGLITKLQACCRGYLVRQEFRSRMNFLKKQIPAITCIQSQWRGYKQKKAYQDRLAYLHSHKDEVVKIQSLARMHQARKRYRDRLQYFRDHINDIIKIQAFIRANKARDDYKTLINAEDPPMIVVRKFVHLLDQSDQDFQEELDLMKMREEVITLIRSNQQLENDLNLMDIKIGLLVKNKITLQDVVSHSKKLTKKNKEQLSDMMMINKQKGGLKALSKEKREKLEAYQHLFYLLQTNPTYLAKLIFQMPQNKSTKFMDSVIFTLYNYASNQREEYLLLRLFQTALQEEIKSKVDQIQEIVTGNPTVIKMVVSFNRGARGQNALRQILAPVVKEIMDDKSLNIKTDPVDIYKSWVNQMESQTGEASKLPYDVTPEQALSHEEVKTRLDNSIRNMRAVTDKFLSAIVSSVDKIPYGMRFIAKVLKDSLHEKFPDAGEDELLKIIGNLLYYRYMNPAIVAPDAFDIIDLSAGGQLTTDQRRNLGSIAKMLQHAASNKMFLGDNAHLSIINEYLSQSYQKFRRFFQVACDVPELQDKFNVDEYSDLVTLTKPVIYISIGEIINTHTLLLDHQDAIAPEHNDPIHELLDDLGEVPTIESLIGESCGNSNDPNKEALAKTEVSLTLTNKFDVPGDENAEMDARTILLNTKRLIVDVIRFQPGETLTEILETPATNEQEAEHQRAMQRRAIRDAKTPDKMKKSKPMKEDNNLSLQEKKEKIQTGLKKLTELGTVDPKNRYQELINDIAKDIRNQRRYRQRRKAELVKLQQTYSALNSKATFYGEQVDYYKSYIKTCLDNLASKGKVSKKPREMKGKKSKKISLKYTAARLHEKGVLLEIEDLQANQFKNVIFEIGPTEEVGDFEVKAKFMGVQMETFMLHYQDLLQLQYEGVAVMKLFDRAKVNVNLLIFLLNKKFYGK

Variants of: B1
Conditions: with iqga1_mouse Iqgap1, Q9JKF1

Variant	effect of a mutation on the interaction
L60A;I61A;T62A	disrupting interaction

Variants of: B1
Conditions: with iqga1_mouse Iqgap1, Q9JKF1
Remark: another data set of the same source

Variant	effect of a mutation on the interaction
Q63A;V64A;K65A	disrupting interaction

Variants of: B2
Conditions: with dok3_mouse Dok3, Q9QZK7

Variant	effect of a mutation on the interaction
F69A;S70A;P71A	disrupting interaction

Variants of: B2
Conditions: with dok3_mouse Dok3, Q9QZK7
Remark: another data set of the same source

Variant	effect of a mutation on the interaction
G72A;P73A;H74A	disrupting interaction

Variants of: B2
Conditions: with dok3_mouse Dok3, Q9QZK7
Remark: another data set of the same source

Variant	effect of a mutation on the interaction
L89A;F91A;D92A	disrupting interaction

Variants of: B3
Conditions: with gag_mlvms gag

Variant	effect of a mutation on the interaction
N1514A;S1515A;K1516A	disrupting interaction
